T1: FcγRIIb extracellular domain with C-terminal His tag (human, UniProt P31994 43-217)
T1 construct: extracellular domain; Soluble receptor expressed in FreeStyle293 cells and used as analyte in Biacore; also called FcgRIIb; 2b; not shown: His tag at the C terminus
T1 sequence (looked up): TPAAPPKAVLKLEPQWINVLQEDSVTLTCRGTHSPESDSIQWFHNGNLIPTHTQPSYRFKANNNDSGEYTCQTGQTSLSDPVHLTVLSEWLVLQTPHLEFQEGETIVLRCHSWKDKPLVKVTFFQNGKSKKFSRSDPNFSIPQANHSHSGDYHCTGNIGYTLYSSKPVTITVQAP

B1: heterodimerized antibody GpH7-A5/GpH7-B3 variant Y296_01G/GpL16-k0 (antibody, human IgG1, kappa)
heavy 1: not shown
heavy 2: not shown
light: DIVMTQSPLSLPVTPGEPASISCQASESLVHSNRNTYLHWYLQKPGQSPQLLIYKVSNRFSGVPDRFSGSGSGTDFTLKISRVEAEDVGVYYCSQNTHVPPTFGQGTKVEIERTVAAPSVFIFPPSDEQLKSGTASVVCLLNNFYPREAKVQWKVDNALQSGNSQESVTEQDSKDSTYSLSSTLTLSKADYEKHKVYACEVTHQGLSSPVTKSFNRGEC
notes: Substitution in only one H chain (GpH7-B3 side); also called He Ab
B2: heterodimerized antibody GpH7-A5/GpH7-B3 variant S298_01G/GpL16-k0 (antibody, human IgG1, kappa)
heavy 1: not shown
heavy 2: not shown
light: B1 light
notes: as for B1
B3: heterodimerized antibody GpH7-A5/GpH7-B3 variant Y296_05P/GpL16-k0 (antibody, human IgG1, kappa)
heavy 1: not shown
heavy 2: not shown
light: B1 light
notes: as for B1
B4: heterodimerized antibody GpH7-A5/GpH7-B3 variant Q295_16H/GpL16-k0 (antibody, human IgG1, kappa)
heavy 1: not shown
heavy 2: not shown
light: B1 light
notes: as for B1
B5: heterodimerized antibody GpH7-A5/GpH7-B3 variant S298_02A/GpL16-k0 (antibody, human IgG1, kappa)
heavy 1: not shown
heavy 2: not shown
light: B1 light
notes: as for B1
B6: heterodimerized antibody GpH7-A5/GpH7-B3 variant Y296_03V/GpL16-k0 (antibody, human IgG1, kappa)
heavy 1: not shown
heavy 2: not shown
light: B1 light
notes: as for B1
B7: heterodimerized antibody GpH7-A5/GpH7-B3 variant Y296_07I/GpL16-k0 (antibody, human IgG1, kappa)
heavy 1: not shown
heavy 2: not shown
light: B1 light
notes: as for B1
B8: heterodimerized antibody GpH7-A5/GpH7-B3 variant Y296_19Q/GpL16-k0 (antibody, human IgG1, kappa)
heavy 1: not shown
heavy 2: not shown
light: B1 light
notes: as for B1
B9: heterodimerized antibody GpH7-A5/GpH7-B3 variant S298_04F/GpL16-k0 (antibody, human IgG1, kappa)
heavy 1: not shown
heavy 2: not shown
light: B1 light
notes: as for B1
B10: heterodimerized antibody GpH7-A5/GpH7-B3 variant Q295_18N/GpL16-k0 (antibody, human IgG1, kappa)
heavy 1: not shown
heavy 2: not shown
light: B1 light
notes: as for B1
B11: heterodimerized antibody GpH7-A5/GpH7-B3 variant Y296_11K/GpL16-k0 (antibody, human IgG1, kappa)
heavy 1: not shown
heavy 2: not shown
light: B1 light
notes: as for B1
B12: heterodimerized antibody GpH7-A5/GpH7-B3 variant S298_03V/GpL16-k0 (antibody, human IgG1, kappa)
heavy 1: not shown
heavy 2: not shown
light: B1 light
notes: as for B1
B13: heterodimerized antibody GpH7-A5/GpH7-B3 variant S298_07I/GpL16-k0 (antibody, human IgG1, kappa)
heavy 1: not shown
heavy 2: not shown
light: B1 light
notes: as for B1
B14: heterodimerized antibody GpH7-A5/GpH7-B3 variant Y296_12R/GpL16-k0 (antibody, human IgG1, kappa)
heavy 1: not shown
heavy 2: not shown
light: B1 light
notes: as for B1
B15: heterodimerized antibody GpH7-A5/GpH7-B3 variant S298_05P/GpL16-k0 (antibody, human IgG1, kappa)
heavy 1: not shown
heavy 2: not shown
light: B1 light
notes: as for B1
B16: heterodimerized antibody GpH7-A5/GpH7-B3 variant Y296_13S/GpL16-k0 (antibody, human IgG1, kappa)
heavy 1: not shown
heavy 2: not shown
light: B1 light
notes: as for B1
B17: heterodimerized antibody GpH7-A5/GpH7-B3 variant Q295_20W/GpL16-k0 (antibody, human IgG1, kappa)
heavy 1: not shown
heavy 2: not shown
light: B1 light
notes: as for B1
B18: heterodimerized antibody GpH7-A5/GpH7-B3 variant Y296_02A/GpL16-k0 (antibody, human IgG1, kappa)
heavy 1: not shown
heavy 2: not shown
light: B1 light
notes: as for B1

Biological target: T2, FcγRIa extracellular domain with C-terminal His tag (human, UniProt P12314 16-292)
T2 construct: extracellular domain; Soluble receptor expressed in FreeStyle293 cells and used as analyte in Biacore; also called FcgRI; 1a; not shown: His tag at the C terminus
T2 sequence (P12314 16-292): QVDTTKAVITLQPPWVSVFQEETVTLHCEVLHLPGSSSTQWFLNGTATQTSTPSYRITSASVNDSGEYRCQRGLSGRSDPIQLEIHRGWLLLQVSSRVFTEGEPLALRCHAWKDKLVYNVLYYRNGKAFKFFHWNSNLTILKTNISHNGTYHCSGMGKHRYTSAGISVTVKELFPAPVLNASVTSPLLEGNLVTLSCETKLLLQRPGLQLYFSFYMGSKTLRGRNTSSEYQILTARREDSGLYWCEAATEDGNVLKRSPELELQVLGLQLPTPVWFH
Assay: SPR Biacore, relative binding amount

Row | He/Con_1a | Binder
1 | 103 % of GpH7-A5/GpH7-B3/GpL16-k0 (=100) | B1
2 | 104 % of GpH7-A5/GpH7-B3/GpL16-k0 (=100) | B2
3 | 95.6 % of GpH7-A5/GpH7-B3/GpL16-k0 (=100) | B3
4 | 102 % of GpH7-A5/GpH7-B3/GpL16-k0 (=100) | B4
5 | 107 % of GpH7-A5/GpH7-B3/GpL16-k0 (=100) | B5
6 | 104 % of GpH7-A5/GpH7-B3/GpL16-k0 (=100) | B6
7 | 104 % of GpH7-A5/GpH7-B3/GpL16-k0 (=100) | B7
8 | 112 % of GpH7-A5/GpH7-B3/GpL16-k0 (=100) | B8
9 | 109 % of GpH7-A5/GpH7-B3/GpL16-k0 (=100) | B9
10 | 102 % of GpH7-A5/GpH7-B3/GpL16-k0 (=100) | B10
11 | 105 % of GpH7-A5/GpH7-B3/GpL16-k0 (=100) | B11
12 | 110 % of GpH7-A5/GpH7-B3/GpL16-k0 (=100) | B12
13 | 107 % of GpH7-A5/GpH7-B3/GpL16-k0 (=100) | B13
14 | 106 % of GpH7-A5/GpH7-B3/GpL16-k0 (=100) | B14
15 | 91.6 % of GpH7-A5/GpH7-B3/GpL16-k0 (=100) | B15
16 | 105 % of GpH7-A5/GpH7-B3/GpL16-k0 (=100) | B16
17 | 93.7 % of GpH7-A5/GpH7-B3/GpL16-k0 (=100) | B17
18 | 103 % of GpH7-A5/GpH7-B3/GpL16-k0 (=100) | B18

Biological target: T1, FcγRIIb extracellular domain with …
Assay: SPR Biacore, relative binding amount

Row | He/Con_2b | Binder
19 | 79.3 % of GpH7-A5/GpH7-B3/GpL16-k0 (=100) | B1
20 | 80.1 % of GpH7-A5/GpH7-B3/GpL16-k0 (=100) | B2
21 | 36.6 % of GpH7-A5/GpH7-B3/GpL16-k0 (=100) | B3
22 | 62.7 % of GpH7-A5/GpH7-B3/GpL16-k0 (=100) | B4
23 | 73.4 % of GpH7-A5/GpH7-B3/GpL16-k0 (=100) | B5
24 | 79.3 % of GpH7-A5/GpH7-B3/GpL16-k0 (=100) | B6
25 | 84.3 % of GpH7-A5/GpH7-B3/GpL16-k0 (=100) | B7
26 | 89.3 % of GpH7-A5/GpH7-B3/GpL16-k0 (=100) | B8
27 | 65.4 % of GpH7-A5/GpH7-B3/GpL16-k0 (=100) | B9
28 | 64.9 % of GpH7-A5/GpH7-B3/GpL16-k0 (=100) | B10
29 | 72.8 % of GpH7-A5/GpH7-B3/GpL16-k0 (=100) | B11
30 | 64.5 % of GpH7-A5/GpH7-B3/GpL16-k0 (=100) | B12
31 | 70.6 % of GpH7-A5/GpH7-B3/GpL16-k0 (=100) | B13
32 | 79.5 % of GpH7-A5/GpH7-B3/GpL16-k0 (=100) | B14
33 | 11.9 % of GpH7-A5/GpH7-B3/GpL16-k0 (=100) | B15
34 | 86.3 % of GpH7-A5/GpH7-B3/GpL16-k0 (=100) | B16
35 | 44.4 % of GpH7-A5/GpH7-B3/GpL16-k0 (=100) | B17
36 | 82 % of GpH7-A5/GpH7-B3/GpL16-k0 (=100) | B18

Biological target: T2, FcγRIa extracellular domain with …
Assay: SPR Biacore; relative binding to FcγRIa divided by that to FcγRIIb

Row | Ia/IIb He_1a/2b | Binder
37 | 1.29 ratio of He/Con_1a to He/Con_2b | B1
38 | 1.29 ratio of He/Con_1a to He/Con_2b | B2
39 | 2.61 ratio of He/Con_1a to He/Con_2b | B3
40 | 1.64 ratio of He/Con_1a to He/Con_2b | B4
41 | 1.45 ratio of He/Con_1a to He/Con_2b | B5
42 | 1.31 ratio of He/Con_1a to He/Con_2b | B6
43 | 1.24 ratio of He/Con_1a to He/Con_2b | B7
44 | 1.25 ratio of He/Con_1a to He/Con_2b | B8
45 | 1.67 ratio of He/Con_1a to He/Con_2b | B9
46 | 1.58 ratio of He/Con_1a to He/Con_2b | B10
47 | 1.44 ratio of He/Con_1a to He/Con_2b | B11
48 | 1.7 ratio of He/Con_1a to He/Con_2b | B12
49 | 1.52 ratio of He/Con_1a to He/Con_2b | B13
50 | 1.34 ratio of He/Con_1a to He/Con_2b | B14
51 | 7.7 ratio of He/Con_1a to He/Con_2b | B15
52 | 1.22 ratio of He/Con_1a to He/Con_2b | B16
53 | 2.11 ratio of He/Con_1a to He/Con_2b | B17
54 | 1.26 ratio of He/Con_1a to He/Con_2b | B18
